Results taken from US7807620 (TRUSTEES OF COLUMBIA UNIVERSITY IN THE CITY OF NEW YORK, dated 2010).

Biological target: T1, recombinant native hFSH receptor (human, UniProt P23945 18-695)
T1 construct: whole, on cells
T1 sequence (looked up): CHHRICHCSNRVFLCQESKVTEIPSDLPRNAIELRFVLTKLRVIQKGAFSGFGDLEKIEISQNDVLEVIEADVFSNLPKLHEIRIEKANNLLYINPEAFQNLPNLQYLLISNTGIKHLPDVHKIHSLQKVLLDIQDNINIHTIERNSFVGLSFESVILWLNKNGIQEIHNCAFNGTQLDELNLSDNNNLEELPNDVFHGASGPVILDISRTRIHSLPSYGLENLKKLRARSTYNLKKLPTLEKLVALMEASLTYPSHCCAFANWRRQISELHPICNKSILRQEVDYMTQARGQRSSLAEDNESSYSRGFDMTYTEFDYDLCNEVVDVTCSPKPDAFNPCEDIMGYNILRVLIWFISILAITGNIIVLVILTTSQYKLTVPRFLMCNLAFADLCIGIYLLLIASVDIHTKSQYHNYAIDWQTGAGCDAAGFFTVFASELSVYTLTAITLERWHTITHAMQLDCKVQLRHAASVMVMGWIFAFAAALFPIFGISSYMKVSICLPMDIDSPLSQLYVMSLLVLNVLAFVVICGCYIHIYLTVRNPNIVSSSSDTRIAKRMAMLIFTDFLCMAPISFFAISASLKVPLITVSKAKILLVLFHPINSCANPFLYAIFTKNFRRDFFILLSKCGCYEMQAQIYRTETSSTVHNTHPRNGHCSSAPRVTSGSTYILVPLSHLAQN
Assay: conclusion drawn from the cAMP bioassay on Y-1 cells expressing the FSH receptor; no direct binding assay described
Method: Bioactivity of the hFSH analogues was evaluated using Y-1 cells transfected with the FSH receptor. Y-1 cell cultures were mixed with the fusion protein and native pituitary hFSH (control) at varying concentrations and media was assayed for cAMP activity as described in Bouloux et al, 2001.
Figure 8: FIG. 8: In vitro bioassay of hormone activity. cAMP concentration (fmol/ml) was quantitated in Y1 cells expressing the FSH receptor after treatment with the indicated amount of either pituitary FSH (PFSH) or the FSH analogue, β-hFSH-CTP-α-hFSH (rFSH-CTP).
The bioactivity of the β-hFSH-CTP-α analogue was first assessed by an assay of hFSH receptor activity. In this assay, a recombinant native hFSH receptor is expressed in a suitable host cell and cAMP induction is measured following incubation with hormone (Lindau-Shepard et al, 2001).

B1: β-hFSH-CTP-α-hFSH (ligand)
chain: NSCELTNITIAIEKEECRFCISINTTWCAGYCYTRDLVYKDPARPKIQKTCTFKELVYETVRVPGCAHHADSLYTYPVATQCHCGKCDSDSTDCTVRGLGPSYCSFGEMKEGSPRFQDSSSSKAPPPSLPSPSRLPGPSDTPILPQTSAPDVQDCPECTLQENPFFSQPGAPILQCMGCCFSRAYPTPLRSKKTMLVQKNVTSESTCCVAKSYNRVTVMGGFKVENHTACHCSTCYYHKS
notes: Secreted from CHO-K1 cells and purified on an A201 column; also called β-hFSH-CTP-α analogue; β-hFSH-CTP-α fusion protein
binding result: binds
